Measurements as given in patent publication US20030105303A1.

Experiments:
[1] = biological target: DNAX Leukocyte Associated Immunoglobulin-like Receptor (DLAIR-1), the DX26 antigen / YE01 gene product (human); assay: flow cytometry (FACScan) on CEM T cell tumor cells; PE goat-anti-mouse-IgG second step
[2] = biological target: DNAX Leukocyte Associated Immunoglobulin-like Receptor (DLAIR-1), the DX26 antigen / YE01 gene product (human); assay: flow cytometry (FACScan) on Peer T cell tumor cells; PE goat-anti-mouse-IgG second step
[3] = biological target: DNAX Leukocyte Associated Immunoglobulin-like Receptor (DLAIR-1), the DX26 antigen / YE01 gene product (human); assay: flow cytometry (FACScan) on HUT78 T cell tumor cells; PE goat-anti-mouse-IgG second step
[4] = biological target: DNAX Leukocyte Associated Immunoglobulin-like Receptor (DLAIR-1), the DX26 antigen / YE01 gene product (human); assay: flow cytometry (FACScan) on Molt4 T cell tumor cells; PE goat-anti-mouse-IgG second step
[5] = biological target: DNAX Leukocyte Associated Immunoglobulin-like Receptor (DLAIR-1), the DX26 antigen / YE01 gene product (human); assay: flow cytometry (FACScan) on U937 myeloid tumor cells; PE goat-anti-mouse-IgG second step
[6] = biological target: DNAX Leukocyte Associated Immunoglobulin-like Receptor (DLAIR-1), the DX26 antigen / YE01 gene product (human); assay: flow cytometry (FACScan) on Jurkat T cell tumor cells; PE goat-anti-mouse-IgG second step
[7] = biological target: DNAX Leukocyte Associated Immunoglobulin-like Receptor (DLAIR-1), the DX26 antigen / YE01 gene product (human); assay: flow cytometry (FACScan) on HL60 promyeloid tumor cells; PE goat-anti-mouse-IgG second step

## DX26 monoclonal antibody
[1]
  mean fluorescence intensity: 92.7
[2]
  mean fluorescence intensity: 29.1
[3]
  mean fluorescence intensity: 25.8
[4]
  mean fluorescence intensity: 30.7
[5]
  mean fluorescence intensity: 49.5
[6]
  mean fluorescence intensity: 47.1
[7]
  mean fluorescence intensity: 46.9
